Measured values from article PMC6602471.

Biological target: T1, ETS1 (Homo sapiens) (UniProt P14921)
T1 sequence (P14921 whole entry, looked up): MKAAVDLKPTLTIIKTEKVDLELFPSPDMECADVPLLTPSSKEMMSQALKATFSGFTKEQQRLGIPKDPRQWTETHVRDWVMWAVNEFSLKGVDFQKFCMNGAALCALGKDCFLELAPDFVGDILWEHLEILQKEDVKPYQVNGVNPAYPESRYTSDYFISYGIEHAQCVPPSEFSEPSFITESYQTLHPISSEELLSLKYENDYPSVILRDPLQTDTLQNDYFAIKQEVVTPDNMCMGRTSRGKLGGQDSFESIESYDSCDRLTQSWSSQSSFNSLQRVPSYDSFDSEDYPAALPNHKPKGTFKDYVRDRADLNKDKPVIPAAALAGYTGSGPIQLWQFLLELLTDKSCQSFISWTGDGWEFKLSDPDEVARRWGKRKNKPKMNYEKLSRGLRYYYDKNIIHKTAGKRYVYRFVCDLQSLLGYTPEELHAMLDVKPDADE
Test: PBM
Conditions: Custom protein-binding microarray; buffer, salt, pH and temperature not given in the material

Row | Sequence | binding signal [log signal]
1 | CGGAAGTGTCGTAAACGTCGGAAATCCGGTTCTTCTGTCTTGATTCGCTTGACGCTGCTG (double strand) [seq01_p23 T>A] | 9.71
2 | CGGAAGTGTCGTAAACGTCGGACATCCGGTTCTTCTGTCTTGATTCGCTTGACGCTGCTG (double strand) [seq01_p23 T>C] | 12.6
3 | CGGAAGTGTCGTAAACGTCGGAGATCCGGTTCTTCTGTCTTGATTCGCTTGACGCTGCTG (double strand) [seq01_p23 T>G] | 8.83
4 | CGGAAGTGTCGTAAACGTCGGATAACCGGTTCTTCTGTCTTGATTCGCTTGACGCTGCTG (double strand) [seq01_p25 T>A] | 8.34
5 | CGGAAGTGTCGTAAACGTCGGATACCCGGTTCTTCTGTCTTGATTCGCTTGACGCTGCTG (double strand) [seq01_p25 T>C] | 8.31
6 | CGGAAGTGTCGTAAACGTCGGATAGCCGGTTCTTCTGTCTTGATTCGCTTGACGCTGCTG (double strand) [seq01_p25 T>G] | 8.18
7 | CGGAAGTGTCGTAAACGTCGGATATACGGTTCTTCTGTCTTGATTCGCTTGACGCTGCTG (double strand) [seq01_p26 C>A] | 9.21
8 | CGGAAGTGTCGTAAACGTCGGATATCAGGTTCTTCTGTCTTGATTCGCTTGACGCTGCTG (double strand) [seq01_p27 C>A] | 8.51
9 | CGGAAGTGTCGTAAACGTCGGATATCCAGTTCTTCTGTCTTGATTCGCTTGACGCTGCTG (double strand) [seq01_p28 G>A] | 8.64
10 | CGGAAGTGTCGTAAACGTCGGATATCCCGTTCTTCTGTCTTGATTCGCTTGACGCTGCTG (double strand) [seq01_p28 G>C] | 8.7
11 | CGGAAGTGTCGTAAACGTCGGATATCCGATTCTTCTGTCTTGATTCGCTTGACGCTGCTG (double strand) [seq01_p29 G>A] | 8.64
12 | CGGAAGTGTCGTAAACGTCGGATATCCGCTTCTTCTGTCTTGATTCGCTTGACGCTGCTG (double strand) [seq01_p29 G>C] | 10.1
13 | CGGAAGTGTCGTAAACGTCGGATATCCGGATCTTCTGTCTTGATTCGCTTGACGCTGCTG (double strand) [seq01_p30 T>A] | 9.94
14 | CGGAAGTGTCGTAAACGTCGGATATCCGGCTCTTCTGTCTTGATTCGCTTGACGCTGCTG (double strand) [seq01_p30 T>C] | 10.7
15 | CGGAAGTGTCGTAAACGTCGGATATCCGGGTCTTCTGTCTTGATTCGCTTGACGCTGCTG (double strand) [seq01_p30 T>G] | 10.2
16 | CGGAAGTGTCGTAAACGTCGGATATCCGGTTCTTCTGTCTTGATTCGCTTGACGCTGCTG (double strand) [seq01_wt0] | 11.9
17 | CGGAAGTGTCGTAAACGTCGGATATCCGTTTCTTCTGTCTTGATTCGCTTGACGCTGCTG (double strand) [seq01_p29 G>T] | 9.45
18 | CGGAAGTGTCGTAAACGTCGGATATCCTGTTCTTCTGTCTTGATTCGCTTGACGCTGCTG (double strand) [seq01_p28 G>T] | 10.1
19 | CGGAAGTGTCGTAAACGTCGGATATCGGGTTCTTCTGTCTTGATTCGCTTGACGCTGCTG (double strand) [seq01_p27 C>G] | 8.65
20 | CGGAAGTGTCGTAAACGTCGGATATCTGGTTCTTCTGTCTTGATTCGCTTGACGCTGCTG (double strand) [seq01_p27 C>T] | 8.37
21 | CGGAAGTGTCGTAAACGTCGGATATGCGGTTCTTCTGTCTTGATTCGCTTGACGCTGCTG (double strand) [seq01_p26 C>G] | 8.38
22 | CGGAAGTGTCGTAAACGTCGGATATTCGGTTCTTCTGTCTTGATTCGCTTGACGCTGCTG (double strand) [seq01_p26 C>T] | 8.55
23 | CGGAAGTGTCGTAAACGTCGGATCTCCGGTTCTTCTGTCTTGATTCGCTTGACGCTGCTG (double strand) [seq01_p24 A>C] | 8.47
24 | CGGAAGTGTCGTAAACGTCGGATGTCCGGTTCTTCTGTCTTGATTCGCTTGACGCTGCTG (double strand) [seq01_p24 A>G] | 9.65
25 | CGGAAGTGTCGTAAACGTCGGATTTCCGGTTCTTCTGTCTTGATTCGCTTGACGCTGCTG (double strand) [seq01_p24 A>T] | 12.5
26 | CGGAAGTGTCGTAAACGTCGGCTATCCGGTTCTTCTGTCTTGATTCGCTTGACGCTGCTG (double strand) [seq01_p22 A>C] | 8.79
27 | CGGAAGTGTCGTAAACGTCGGGTATCCGGTTCTTCTGTCTTGATTCGCTTGACGCTGCTG (double strand) [seq01_p22 A>G] | 10.5
28 | CGGAAGTGTCGTAAACGTCGGTTATCCGGTTCTTCTGTCTTGATTCGCTTGACGCTGCTG (double strand) [seq01_p22 A>T] | 9.21
29 | GCTGCTGCGGTGCATACCCCACCGGATGTGACCCCGGTCTTGATTCGCTTGACGCTGCTG (double strand) [seq02_wt0] | 10.2
30 | GGAAAAAGGCCCAGGGTAACACCGGAAGTGGGCTTAGTCTTGATTCGCTTGACGCTGCTG (double strand) [seq04_wt0] | 12
